Assay results from US20030166571A1 (SYNVAX, published 2003).
Numbered stars: 1 amine (or outer) side, 2 acyl side, 3 side chain; on linkers, the order of the positions; unused ones are H or OH. Square brackets hold non-standard residues; d marks the D form. Ends that are not written are not given here. * marks the point of attachment. Tyr(BN,3-Cl) = tyrosine with benzyl (BN) and 3-Cl, O=C([C@H](Cc1ccc(OCc2ccccc2)c(Cl)c1)N[*:1])[*:2]; Phe(4-NO2) = N[C@@H](Cc1ccc([N+](=O)[O-])cc1)C(=O)O; Phe(4-SO3H) = N[C@@H](Cc1ccc(S(=O)(=O)O)cc1)C(=O)O; Trp(5-CN) = N#Cc1ccc2[nH]cc(C[C@H](N)C(=O)O)c2c1; Phe(4-COOH) = N[C@@H](Cc1ccc(C(=O)O)cc1)C(=O)O; Phe(4-CN) = N#Cc1ccc(C[C@H](N)C(=O)O)cc1; Phe(4-F) = N[C@@H](Cc1ccc(F)cc1)C(=O)O; Phe(4-Me) = Cc1ccc(C[C@H](N)C(=O)O)cc1; hPhe = N[C@@H](CCc1ccccc1)C(=O)O; Phg = N[C@H](C(=O)O)c1ccccc1; Ac6c = NC1(C(=O)O)CCCCC1; Pentanoyl = CCCCC(=O)*; Ahx = NCCCCCC(=O)O

Key:
[1] = target: T1, human ORL-1 receptor (opioid receptor like 1) (human, UniProt P41146 1-370); experiment: [3H]nociceptin displacement, membranes of CHO cells transfected with human ORL-1; Ki=IC50/(1+L/Kd)
T1 construct: whole, on cells; Assays were run on membranes of CHO cells transfected with human ORL-1; also called opiate receptor like 1; nociceptin receptor
Experimental: Receptor binding studies were conducted on human ORL1 (opiate receptor like 1) transfected into Chinese hamster ovary (CHO) cells using each of the hexapeptide analog compounds of Table 3. All the compounds were evaluated for binding affinities. […] The data shown in Table 5 represents the average±SEM of at least two experiments conducted in triplicate.
Cells are removed from the plates by scraping with a rubber policeman, and then homogenized in Tris buffer using a Polytron homogenizer. Following this homogenization step, the cellular mixture is centrifuged once and washed by an additional centrifugation at 40,000×g for 15 min. The pellet formed during the centrifugation is re-suspended in 50 mM Tris, pH 7.5. […] Samples of the suspension are then filtered over glass fiber filters using a Wallac cell harvester.
For the data in Table 5, binding was conducted as described above. IC₅₀ values and Hill coefficients were determined using the curve-fitting program Prism. K₁ values were calculated using the equation K₁=IC₅₀/(1+[L]/Kd). […] The data in Table 5 represent the average±SEM of at least two experiments conducted in triplicate.

[2] = target: T1, human ORL-1 receptor (opioid receptor …); experiment: cell-based or functional assay

T1 sequence (P41146 whole entry): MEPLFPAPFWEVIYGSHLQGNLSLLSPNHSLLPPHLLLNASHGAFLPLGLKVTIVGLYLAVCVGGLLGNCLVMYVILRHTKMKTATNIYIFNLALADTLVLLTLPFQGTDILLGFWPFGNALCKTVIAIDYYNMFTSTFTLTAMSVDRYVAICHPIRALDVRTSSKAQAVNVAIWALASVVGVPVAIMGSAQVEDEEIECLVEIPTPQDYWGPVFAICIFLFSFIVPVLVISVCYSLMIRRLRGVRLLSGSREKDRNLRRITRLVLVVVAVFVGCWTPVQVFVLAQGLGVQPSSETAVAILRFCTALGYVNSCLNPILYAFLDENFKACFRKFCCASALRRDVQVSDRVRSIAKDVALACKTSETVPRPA

Binder | Ki [1] [nM] | % Stimulation of [35S]GTPγS binding [2] [%] | EC50 (nM) of stimulation of [35S]GTPγS binding [2] [nM]
Ac-R[Phe(4-COOH)]YRWR-NH2 (SMILES CC(=O)N[C@@H](CCCNC(=N)N)C(=O)N[C@@H](Cc1ccc(C(=O)O)cc1)C(=O)N[C@@H](Cc1ccc(O)cc1)C(=O)N[C@@H](CCCNC(=N)N)C(=O)N[C@@H](Cc1c[nH]c2ccccc12)C(=O)N[C@@H](CCCNC(=N)N)C(N)=O, also called Ac-Arg-Phe(4-COOH)-Tyr-Arg-Trp-Arg-NH2) [VII-19-B] | 40.6 | 45.5 | 854
Ac-R[Phe(4-CN)]YRWR-NH2 (SMILES CC(=O)N[C@@H](CCCNC(=N)N)C(=O)N[C@@H](Cc1ccc(C#N)cc1)C(=O)N[C@@H](Cc1ccc(O)cc1)C(=O)N[C@@H](CCCNC(=N)N)C(=O)N[C@@H](Cc1c[nH]c2ccccc12)C(=O)N[C@@H](CCCNC(=N)N)C(N)=O, also called Ac-Arg-Phe(4-CN)-Tyr-Arg-Trp-Arg-NH2) [VII-43-C] | 0.15 | 49.7 | 29.5
{β‑aminoisobutryl}-RYYRWR-NH2 (also called β-aminoisobutryl-Arg-Tyr-Tyr-Arg-Trp-Arg-NH2) [VII-3-A] | 1.18 | 29.1 | 68
Ac-RY[Phg]RWR-NH2 (SMILES CC(=O)N[C@@H](CCCNC(=N)N)C(=O)N[C@@H](Cc1ccc(O)cc1)C(=O)N[C@H](C(=O)N[C@@H](CCCNC(=N)N)C(=O)N[C@@H](Cc1c[nH]c2ccccc12)C(=O)N[C@@H](CCCNC(=N)N)C(N)=O)c1ccccc1, also called Ac-Arg-Tyr-Phg-Arg-Trp-Arg-NH2) [VII-13-B] | 27 |  | 
Ac-R[hPhe][hPhe]RWR-NH2 (SMILES CC(=O)N[C@@H](CCCNC(=N)N)C(=O)N[C@@H](CCc1ccccc1)C(=O)N[C@@H](CCc1ccccc1)C(=O)N[C@@H](CCCNC(=N)N)C(=O)N[C@@H](Cc1c[nH]c2ccccc12)C(=O)N[C@@H](CCCNC(=N)N)C(N)=O, also called Ac-Arg-hPhe-hPhe-Arg-Trp-Arg-NH2) [VII-49-B] | 5.49 | < 20 | 
Ac-R[Phe(4-Me)][Phe(4-Me)]RWR-NH2 (SMILES CC(=O)N[C@@H](CCCNC(=N)N)C(=O)N[C@@H](Cc1ccc(C)cc1)C(=O)N[C@@H](Cc1ccc(C)cc1)C(=O)N[C@@H](CCCNC(=N)N)C(=O)N[C@@H](Cc1c[nH]c2ccccc12)C(=O)N[C@@H](CCCNC(=N)N)C(N)=O, also called Ac-Arg-Phe(4-Me)-Phe(4-Me)-Arg-Trp-Arg-NH2) [VII-17-B] | 10.1 | < 20 | 
Ac-R[Tyr(4-Me)]YRWR-NH2 (also called Ac-Arg-Tyr(4-Me)-Tyr-Arg-Trp-Arg-NH2) [VII-35-C] | 0.43 | 52.1 | 51.1
Ac-R[Phe(4-F)][Phe(4-F)]RWR-NH2 (SMILES CC(=O)N[C@@H](CCCNC(=N)N)C(=O)N[C@@H](Cc1ccc(F)cc1)C(=O)N[C@@H](Cc1ccc(F)cc1)C(=O)N[C@@H](CCCNC(=N)N)C(=O)N[C@@H](Cc1c[nH]c2ccccc12)C(=O)N[C@@H](CCCNC(=N)N)C(N)=O, also called VII-33-C; Ac-Arg-Phe(4-F)-Phe(4-F)-Arg-Trp-Arg-NH2) [VII-33-B] | 1.51 | < 20 | 
Ac-RY[Phe(4-F)]RWR-NH2 (SMILES CC(=O)N[C@@H](CCCNC(=N)N)C(=O)N[C@@H](Cc1ccc(O)cc1)C(=O)N[C@@H](Cc1ccc(F)cc1)C(=O)N[C@@H](CCCNC(=N)N)C(=O)N[C@@H](Cc1c[nH]c2ccccc12)C(=O)N[C@@H](CCCNC(=N)N)C(N)=O, also called Ac-Arg-Tyr-Phe(4-F)-Arg-Trp-Arg-NH2) [VII-61-B] | 0.05 | 70.4 | 2
Ac-R[Phe(4-NO2)]YRWR-NH2 (SMILES CC(=O)N[C@@H](CCCNC(=N)N)C(=O)N[C@@H](Cc1ccc([N+](=O)[O-])cc1)C(=O)N[C@@H](Cc1ccc(O)cc1)C(=O)N[C@@H](CCCNC(=N)N)C(=O)N[C@@H](Cc1c[nH]c2ccccc12)C(=O)N[C@@H](CCCNC(=N)N)C(N)=O, also called Ac-Arg-Phe(NO2)-Tyr-Arg-Trp-Arg-NH2) [VII-23-B] | 0.44 | 56.6 | 15.7
Pentanoyl-RYYRWR-NH2 (SMILES CCCCC(=O)N[C@@H](CCCNC(=N)N)C(=O)N[C@@H](Cc1ccc(O)cc1)C(=O)N[C@@H](Cc1ccc(O)cc1)C(=O)N[C@@H](CCCNC(=N)N)C(=O)N[C@@H](Cc1c[nH]c2ccccc12)C(=O)N[C@@H](CCCNC(=N)N)C(N)=O, also called Pentanoyl-Arg-Tyr-Tyr-Arg-Trp-Arg-NH2; Pentanoyl-RYYRWR-NH2) [VII-7-B] | 0.16 | < 20 | 
Ac-RYYRW[Ahx]-NH2 (SMILES CC(=O)N[C@@H](CCCNC(=N)N)C(=O)N[C@@H](Cc1ccc(O)cc1)C(=O)N[C@@H](Cc1ccc(O)cc1)C(=O)N[C@@H](CCCNC(=N)N)C(=O)N[C@@H](Cc1c[nH]c2ccccc12)C(=O)NCCCCCC(N)=O, also called Ac-Arg-Tyr-Tyr-Arg-Trp-ε-aminocaproyl-NH2) [VII-57-C] | 41.9 | 37.4 | 358
[Ac6c]RYYRWR-NH2 (N-terminus assumed; SMILES N=C(N)NCCC[C@H](NC(=O)[C@H](Cc1c[nH]c2ccccc12)NC(=O)[C@H](CCCNC(=N)N)NC(=O)[C@H](Cc1ccc(O)cc1)NC(=O)[C@H](Cc1ccc(O)cc1)NC(=O)[C@H](CCCNC(=N)N)NC(=O)C1(N)CCCCC1)C(N)=O, also called 1-aminocyclohexanoyl-Arg-Tyr-Tyr-Arg-Trp-Arg-NH2) [VII-4-B] | 9.25 | < 20 | 
Ac-[Ahx]YYRWR-NH2 (SMILES CC(=O)NCCCCCC(=O)N[C@@H](Cc1ccc(O)cc1)C(=O)N[C@@H](Cc1ccc(O)cc1)C(=O)N[C@@H](CCCNC(=N)N)C(=O)N[C@@H](Cc1c[nH]c2ccccc12)C(=O)N[C@@H](CCCNC(=N)N)C(N)=O, also called Ac-ε-aminocaproyl-Tyr-Tyr-Arg-Trp-Arg-NH2) [VII-53-B] | 29.1 | 39.5 | 167
Ac-R[Phe(4-SO3H)]YRWR-NH2 (also called Ac-Arg-Phe(SO3H)-Tyr-Arg-Trp-Arg-NH2) [VII-27-B] | 155 |  | 
Nipacotyl-RYYRWR-NH2 (also called Nipacotyl-Arg-Tyr-Tyr-Arg-Trp-Arg-NH2) [VII-1-A] | 30.3 | < 20 | 
{β‑Nva}-RYYRWR-NH2 (also called β-Nva-Arg-Tyr-Tyr-Arg-Trp-Arg-NH2) [VII-2-A] | 11.8 | < 20 | 
Ac-RYYR[Trp(5-CN)]R-NH2 (SMILES CC(=O)N[C@@H](CCCNC(=N)N)C(=O)N[C@@H](Cc1ccc(O)cc1)C(=O)N[C@@H](Cc1ccc(O)cc1)C(=O)N[C@@H](CCCNC(=N)N)C(=O)N[C@@H](Cc1c[nH]c2ccc(C#N)cc12)C(=O)N[C@@H](CCCNC(=N)N)C(N)=O, also called Ac-Arg-Tyr-Tyr-Arg-Trp(5-CN)-Arg-NH2) [VII-51-A] | 0.3 | 49.1 | 156
Ac-R[Phe(4-Me)]YRWR-NH2 (SMILES CC(=O)N[C@@H](CCCNC(=N)N)C(=O)N[C@@H](Cc1ccc(C)cc1)C(=O)N[C@@H](Cc1ccc(O)cc1)C(=O)N[C@@H](CCCNC(=N)N)C(=O)N[C@@H](Cc1c[nH]c2ccccc12)C(=O)N[C@@H](CCCNC(=N)N)C(N)=O, also called Ac-Arg-Phe(4-Me)-Tyr-Arg-Trp-Arg-NH2) [VII-15-B] | 0.48 | 59.8 | 18.8
Ac-R[Phe(4-F)]YRWR-NH2 (SMILES CC(=O)N[C@@H](CCCNC(=N)N)C(=O)N[C@@H](Cc1ccc(F)cc1)C(=O)N[C@@H](Cc1ccc(O)cc1)C(=O)N[C@@H](CCCNC(=N)N)C(=O)N[C@@H](Cc1c[nH]c2ccccc12)C(=O)N[C@@H](CCCNC(=N)N)C(N)=O, also called Ac-Arg-Phe(4-F)-Tyr-Arg-Trp-Arg-NH2) [VII-31-B] | 0.52 | 54.4 | 35.7
Ac-R[Phg][Phg]RWR-NH2 (SMILES CC(=O)N[C@@H](CCCNC(=N)N)C(=O)N[C@H](C(=O)N[C@H](C(=O)N[C@@H](CCCNC(=N)N)C(=O)N[C@@H](Cc1c[nH]c2ccccc12)C(=O)N[C@@H](CCCNC(=N)N)C(N)=O)c1ccccc1)c1ccccc1, also called Ac-Arg-Phg-Phg-Arg-Trp-Arg-NH2) [VII-11-B] | 30.4 |  | 
Ac-R[Tyr(BN,3-Cl)]YRWR-NH2 (also called Ac-Arg-Tyr(BN*, 3-Cl)-Tyr-Arg-Trp-Arg-NH2) [VII-39-D] | 0.03 | 89 | 0.3
Ac-RYY[Ahx]WR-NH2 (SMILES CC(=O)N[C@@H](CCCNC(=N)N)C(=O)N[C@@H](Cc1ccc(O)cc1)C(=O)N[C@@H](Cc1ccc(O)cc1)C(=O)NCCCCCC(=O)N[C@@H](Cc1c[nH]c2ccccc12)C(=O)N[C@@H](CCCNC(=N)N)C(N)=O, also called Ac-Arg-Tyr-Tyr-ε-aminocaproyl-Trp-Arg-NH2) [VII-55-A] | 39 | 26.6 | 1230
Ac-R[Tyr(4-Me)][Tyr(4-Me)]RWR-NH2 (also called Ac-Arg-Tyr(4-Me)-Tyr(4-Me)-Arg-Trp-Arg-NH2) [VII-37-B] | 6.29 | < 20 | 
